The record followed here is US20210238260.

The chains are these.
B1: FIXa D104N/K106S/N260S/R318Y/R338E/R403E/E410N (protein)
chain 1: YNSGKLEEFVQGNLERECMEEKCSFEEAREVFENTERTTEFWKQYVDGDQCESNPCLNGGSCKDDINSYECWCPFGFEGKNCELDVTCNIKNGRCEQFCKNSANNSVVCSCTEGYRLAENQKSCEPAVPFPCGRVSVSQTSKLTR
chain 2: VVGGEDAKPGQFPWQVVLNGKVDAFCGGSIVNEKWIVTAAHCVETGVKITVVAGEHNIEETEHTEQKRNVIRIIPHHNYSAAINKYNHDIALLELDEPLVLNSYVTPICIADKEYTNIFLKFGSGYVSGWGRVFHKGYSALVLQYLRVPLVDRATCLESTKFTIYNNMFCAGFHEGGRDSCQGDSGGPHVTEVEGTSFLTGIISWGEECAMKGKYGIYTKVSEYVNWIKNKTKLT
B2: FIXa D104N/K106S/Y155F/K247N/N249S/N260S (protein)
chain 1: YNSGKLEEFVQGNLERECMEEKCSFEEAREVFENTERTTEFWKQYVDGDQCESNPCLNGGSCKDDINSYECWCPFGFEGKNCELDVTCNIKNGRCEQFCKNSANNSVVCSCTEGYRLAENQKSCEPAVPFPCGRVSVSQTSKLTR
chain 2: VVGGEDAKPGQFPWQVVLNGKVDAFCGGSIVNEKWIVTAAHCVETGVKITVVAGEHNIEETEHTEQNRSVIRIIPHHNYSAAINKYNHDIALLELDEPLVLNSYVTPICIADKEYTNIFLKFGSGYVSGWGRVFHKGRSALVLQYLRVPLVDRATCLRSTKFTIYNNMFCAGFHEGGRDSCQGDSGGPHVTEVEGTSFLTGIISWGEECAMKGKYGIYTKVSRYVNWIKEKTKLT
B3: FIXa Y155F/R318Y/R338E/N346D/R403E/E410N (protein)
chain 1: YNSGKLEEFVQGNLERECMEEKCSFEEAREVFENTERTTEFWKQYVDGDQCESNPCLNGGSCKDDINSYECWCPFGFEGKNCELDVTCNIKNGRCEQFCKNSADNKVVCSCTEGYRLAENQKSCEPAVPFPCGRVSVSQTSKLTR
chain 2: VVGGEDAKPGQFPWQVVLNGKVDAFCGGSIVNEKWIVTAAHCVETGVKITVVAGEHNIEETEHTEQKRNVIRIIPHHNYNAAINKYNHDIALLELDEPLVLNSYVTPICIADKEYTNIFLKFGSGYVSGWGRVFHKGYSALVLQYLRVPLVDRATCLESTKFTIYDNMFCAGFHEGGRDSCQGDSGGPHVTEVEGTSFLTGIISWGEECAMKGKYGIYTKVSEYVNWIKNKTKLT
B4: FIXa Y155F/K247N/N249S/N260S (protein)
chain 1: YNSGKLEEFVQGNLERECMEEKCSFEEAREVFENTERTTEFWKQYVDGDQCESNPCLNGGSCKDDINSYECWCPFGFEGKNCELDVTCNIKNGRCEQFCKNSADNKVVCSCTEGYRLAENQKSCEPAVPFPCGRVSVSQTSKLTR
chain 2: VVGGEDAKPGQFPWQVVLNGKVDAFCGGSIVNEKWIVTAAHCVETGVKITVVAGEHNIEETEHTEQNRSVIRIIPHHNYSAAINKYNHDIALLELDEPLVLNSYVTPICIADKEYTNIFLKFGSGYVSGWGRVFHKGRSALVLQYLRVPLVDRATCLRSTKFTIYNNMFCAGFHEGGRDSCQGDSGGPHVTEVEGTSFLTGIISWGEECAMKGKYGIYTKVSRYVNWIKEKTKLT
B5: FIXa K247N/N249S/N260S/R318Y/R338E/R403E/E410N (protein)
chain 1: YNSGKLEEFVQGNLERECMEEKCSFEEAREVFENTERTTEFWKQYVDGDQCESNPCLNGGSCKDDINSYECWCPFGFEGKNCELDVTCNIKNGRCEQFCKNSADNKVVCSCTEGYRLAENQKSCEPAVPFPCGRVSVSQTSKLTR
chain 2: VVGGEDAKPGQFPWQVVLNGKVDAFCGGSIVNEKWIVTAAHCVETGVKITVVAGEHNIEETEHTEQNRSVIRIIPHHNYSAAINKYNHDIALLELDEPLVLNSYVTPICIADKEYTNIFLKFGSGYVSGWGRVFHKGYSALVLQYLRVPLVDRATCLESTKFTIYNNMFCAGFHEGGRDSCQGDSGGPHVTEVEGTSFLTGIISWGEECAMKGKYGIYTKVSEYVNWIKNKTKLT
B6: FIXa Y155F/K247N/N249S/N260S/R318Y/R338E/R403E/E410N (protein)
chain 1: YNSGKLEEFVQGNLERECMEEKCSFEEAREVFENTERTTEFWKQYVDGDQCESNPCLNGGSCKDDINSYECWCPFGFEGKNCELDVTCNIKNGRCEQFCKNSADNKVVCSCTEGYRLAENQKSCEPAVPFPCGRVSVSQTSKLTR
chain 2: VVGGEDAKPGQFPWQVVLNGKVDAFCGGSIVNEKWIVTAAHCVETGVKITVVAGEHNIEETEHTEQNRSVIRIIPHHNYSAAINKYNHDIALLELDEPLVLNSYVTPICIADKEYTNIFLKFGSGYVSGWGRVFHKGYSALVLQYLRVPLVDRATCLESTKFTIYNNMFCAGFHEGGRDSCQGDSGGPHVTEVEGTSFLTGIISWGEECAMKGKYGIYTKVSEYVNWIKNKTKLT
B7: FIXa R318Y/R338E/T343R/R403E/E410N (protein)
chain 1: YNSGKLEEFVQGNLERECMEEKCSFEEAREVFENTERTTEFWKQYVDGDQCESNPCLNGGSCKDDINSYECWCPFGFEGKNCELDVTCNIKNGRCEQFCKNSADNKVVCSCTEGYRLAENQKSCEPAVPFPCGRVSVSQTSKLTR
chain 2: VVGGEDAKPGQFPWQVVLNGKVDAFCGGSIVNEKWIVTAAHCVETGVKITVVAGEHNIEETEHTEQKRNVIRIIPHHNYNAAINKYNHDIALLELDEPLVLNSYVTPICIADKEYTNIFLKFGSGYVSGWGRVFHKGYSALVLQYLRVPLVDRATCLESTKFRIYNNMFCAGFHEGGRDSCQGDSGGPHVTEVEGTSFLTGIISWGEECAMKGKYGIYTKVSEYVNWIKNKTKLT
B8: FIXa Y155F/N260S/R318Y/R338E/R403E/E410N (protein)
chain 1: YNSGKLEEFVQGNLERECMEEKCSFEEAREVFENTERTTEFWKQYVDGDQCESNPCLNGGSCKDDINSYECWCPFGFEGKNCELDVTCNIKNGRCEQFCKNSADNKVVCSCTEGYRLAENQKSCEPAVPFPCGRVSVSQTSKLTR
chain 2: VVGGEDAKPGQFPWQVVLNGKVDAFCGGSIVNEKWIVTAAHCVETGVKITVVAGEHNIEETEHTEQKRNVIRIIPHHNYSAAINKYNHDIALLELDEPLVLNSYVTPICIADKEYTNIFLKFGSGYVSGWGRVFHKGYSALVLQYLRVPLVDRATCLESTKFTIYNNMFCAGFHEGGRDSCQGDSGGPHVTEVEGTSFLTGIISWGEECAMKGKYGIYTKVSEYVNWIKNKTKLT
B9: FIXa D104N/K106S/K247N/N249S/N260S (protein)
chain 1: YNSGKLEEFVQGNLERECMEEKCSFEEAREVFENTERTTEFWKQYVDGDQCESNPCLNGGSCKDDINSYECWCPFGFEGKNCELDVTCNIKNGRCEQFCKNSANNSVVCSCTEGYRLAENQKSCEPAVPFPCGRVSVSQTSKLTR
chain 2: VVGGEDAKPGQFPWQVVLNGKVDAFCGGSIVNEKWIVTAAHCVETGVKITVVAGEHNIEETEHTEQNRSVIRIIPHHNYSAAINKYNHDIALLELDEPLVLNSYVTPICIADKEYTNIFLKFGSGYVSGWGRVFHKGRSALVLQYLRVPLVDRATCLRSTKFTIYNNMFCAGFHEGGRDSCQGDSGGPHVTEVEGTSFLTGIISWGEECAMKGKYGIYTKVSRYVNWIKEKTKLT

The target of the data set is Factor X, P00742.
Factor X, P00742, sequence (P00742 whole entry, looked up): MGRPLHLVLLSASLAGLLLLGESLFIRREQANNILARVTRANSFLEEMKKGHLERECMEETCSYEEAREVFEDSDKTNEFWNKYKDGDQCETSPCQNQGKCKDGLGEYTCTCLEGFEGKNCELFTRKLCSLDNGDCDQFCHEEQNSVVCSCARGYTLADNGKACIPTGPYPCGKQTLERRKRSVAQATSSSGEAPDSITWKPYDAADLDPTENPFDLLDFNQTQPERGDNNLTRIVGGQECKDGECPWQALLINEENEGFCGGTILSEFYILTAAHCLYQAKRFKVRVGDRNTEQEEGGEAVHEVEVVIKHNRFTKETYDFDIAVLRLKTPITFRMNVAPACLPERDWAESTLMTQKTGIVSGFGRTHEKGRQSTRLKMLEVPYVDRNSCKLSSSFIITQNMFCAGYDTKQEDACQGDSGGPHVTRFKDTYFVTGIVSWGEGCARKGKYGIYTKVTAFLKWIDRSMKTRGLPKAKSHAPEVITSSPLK
With B1, the “% of WT kcat/KM” value came to 190%; the KM (FX activation by FIXa in Xase complex with FVIIIa, PC/PS vesicles, Ca2+) stood at 0.0611 µM; the kcat/KM (usually the turnover number divided by the Michaelis constant) was found to be 8.8e+07 M⁻¹ s⁻¹.

Regarding B2, the “% of WT kcat/KM” value is listed as 18%; the KM (FX activation by FIXa in Xase complex with FVIIIa, PC/PS vesicles, Ca2+) came to 0.0685 µM; the kcat/KM was determined as 8.2e+06 M⁻¹ s⁻¹.

Take B3: the “% of WT kcat/KM” value stood at 135%; the KM (FX activation by FIXa in Xase complex with FVIIIa, PC/PS vesicles, Ca2+) turned out to be 0.1 µM; the kcat/KM amounted to 6.2e+07 M⁻¹ s⁻¹.

For B4, the “% of WT kcat/KM” value was 42%; the KM (FX activation by FIXa in Xase complex with FVIIIa, PC/PS vesicles, Ca2+) came to 0.0965 µM; the kcat/KM came to 1.9e+07 M⁻¹ s⁻¹.

B5: the “% of WT kcat/KM” value worked out at 145%; the KM (FX activation by FIXa in Xase complex with FVIIIa, PC/PS vesicles, Ca2+) was 0.0474 µM; the kcat/KM amounted to 6.7e+07 M⁻¹ s⁻¹.

As for B6, the “% of WT kcat/KM” value is 124%; the KM (FX activation by FIXa in Xase complex with FVIIIa, PC/PS vesicles, Ca2+) was found to be 0.0954 µM; the kcat/KM turned out to be 5.7e+07 M⁻¹ s⁻¹.

As to B7, the “% of WT kcat/KM” value is 907%; the KM (FX activation by FIXa in Xase complex with FVIIIa, PC/PS vesicles, Ca2+) amounted to 0.0247 µM; the specificity constant (kcat/KM) turned out to be 4.2e+08 M⁻¹ s⁻¹.

Turning to B8, the “% of WT kcat/KM” value amounted to 152%; the KM (FX activation by FIXa in Xase complex with FVIIIa, PC/PS vesicles, Ca2+) was 0.0839 µM; the kcat/KM came to 7e+07 M⁻¹ s⁻¹.

Consider B9, for which the “% of WT kcat/KM” value worked out at 21%; the KM (FX activation by FIXa in Xase complex with FVIIIa, PC/PS vesicles, Ca2+) worked out at 0.0612 µM; the kcat/KM was 9.8e+06 M⁻¹ s⁻¹.
